Where a chain is given by its changes, count along the chain named.
B1: RBZ–3 (Fab, V domains shown)
VH: EVQLVESGGGLVQPGGSLRLSCAASGYDFTHYGMNWVRQAPGKGLEWVGWINTYTGEPTYAADFKRRFTFSLDTSKSTAYLQMNSLRAEDTAVYYCAKYPYYYGTSHWYFDVWGQGTLVTVSS
VL: DIQLTQSPSSLSASVGDRVTITCSASQDISNYLNWYQQKPGKAPKVLIYDTSDLESGVPSRFSGSGSGTDFTLTISSLQPEDFATYYCQQYSTVPWTFGQGTKVEIK
notes: as the light chain of m1 (ranibizumab) before CDR-L1; CDR-L1, same as ranibizumab; as the light chain of m1 (ranibizumab) between CDR-L1 and CDR-L2; CDR-L2, changed from FTSSLHS of ranibizumab; as the light chain of m1 (ranibizumab) after CDR-L2; as the heavy chain of m1 (ranibizumab Fab), unchanged; Charge variant, relative charge -3 against ranibizumab; changes only in CDR-L2; also called TA_2; …
B2: RBZ+7 (Fab, V domains shown)
VH: B1 VH
VL: B1 VL with S24R, S26R, D28G, S30R, D50K, D53R, L54R, E55H
notes: as the light chain of m1 (ranibizumab) before CDR-L1; as the light chain of m1 (ranibizumab) between CDR-L1 and CDR-L2; CDR-L2, changed from FTSSLHS of ranibizumab; as the light chain of m1 (ranibizumab) after CDR-L2; as the heavy chain of m1 (ranibizumab Fab), unchanged; Charge variant, relative charge +7 against ranibizumab; also called TA_3; source: E. coli, 10 L fermentation, purified …
B3: RBZ-HI low (Fab, V domains shown)
VH: B1 VH
VL: B1 VL with S24Q, Y32S, D50S, D53N, E55H
notes: as the light chain of m1 (ranibizumab) before CDR-L1; as the light chain of m1 (ranibizumab) between CDR-L1 and CDR-L2; CDR-L2, changed from FTSSLHS of ranibizumab; as the light chain of m1 (ranibizumab) after CDR-L2; as the heavy chain of m1 (ranibizumab Fab), unchanged; Hydrophobicity variant; source: E. coli, 10 L fermentation, purified (Protein G-Sepharose, cation exchange Hitrap SP HP)
B4: RBZ-HI high (Fab, V domains shown)
VH: B1 VH
VL: B1 VL with A25V, D28V, N31S, Y32W, N34A, D50F, T51A, D53S, E55Q, S56T
notes: as for B3

Biological target: T1, vascular endothelial growth factor (VEGF) (Homo sapiens, UniProt P15692-4)
T1 construct: vascular endothelial growth factor (VEGF-A); The SPR paragraph says only 'immobilized VEGF'; also called recombinant human VEGF
Test: SPR; Biacore T200; VEGF immobilised, Fabs as analyte
Conditions: both partners purified

T1 sequence (P15692 whole entry): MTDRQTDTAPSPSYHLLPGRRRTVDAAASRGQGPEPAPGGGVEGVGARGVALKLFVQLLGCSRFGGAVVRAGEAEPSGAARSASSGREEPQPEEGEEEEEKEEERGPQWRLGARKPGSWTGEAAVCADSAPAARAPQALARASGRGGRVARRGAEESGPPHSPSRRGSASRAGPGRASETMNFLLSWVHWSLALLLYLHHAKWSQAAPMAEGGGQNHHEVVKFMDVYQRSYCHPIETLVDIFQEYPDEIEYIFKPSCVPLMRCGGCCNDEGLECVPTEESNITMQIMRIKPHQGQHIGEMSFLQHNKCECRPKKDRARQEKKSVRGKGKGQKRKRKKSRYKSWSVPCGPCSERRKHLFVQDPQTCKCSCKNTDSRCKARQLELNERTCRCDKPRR

Kd, < 5 nM:
B1
B2
B3
B4
